One substance from publication PMC1933539 can be followed below.

Assay [1] deals with SycO (Yersinia enterocolitica type three secretion chaperone SycO) (Yersinia enterocolitica WA-314). Nature of the assay: cross-linking; 1.3 mM DSP, 3 μg/μl recombinant SycO in PBS, 30 min at 22°C; Coomassie-stained SDS-PAGE.
For assay [2] the target is unchanged. Nature of the assay: SEC; analytical gel filtration, SMART system, Superdex 75 PC 3.2/30 in PBS; 50 μg SycO mixed with 50 μg carbonic anhydrase (29 kDa marker); fractions analysed by SDS-PAGE; column calibrated with marker proteins. (In gel filtration, larger molecules generally elute earlier.)

Regarding “SycO (Yersinia enterocolitica type three secretion chaperone SycO) (natural protein)”, the stoichiometry N in assay [1] and in assay [2] was 2 throughout.
